# Measurements as given in patent US20150045540A1 (published 2015).
# T1: Placenta Growth Factor (PlGF), human (human, UniProt P49763 21-149)
# T1 chain: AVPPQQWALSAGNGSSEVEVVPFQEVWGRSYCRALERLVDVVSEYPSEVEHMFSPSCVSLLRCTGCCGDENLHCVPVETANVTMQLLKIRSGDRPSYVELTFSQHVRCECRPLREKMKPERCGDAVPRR
# What was measured:
# [1] = target: T1, Placenta Growth Factor (PlGF), human; assay: ELISA
# [2] = target: Hepatocyte Growth Factor (HGF), human (human, UniProt P14210 32-728); assay: ELISA
# Hepatocyte Growth Factor (HGF), human, sequence (P14210 32-728): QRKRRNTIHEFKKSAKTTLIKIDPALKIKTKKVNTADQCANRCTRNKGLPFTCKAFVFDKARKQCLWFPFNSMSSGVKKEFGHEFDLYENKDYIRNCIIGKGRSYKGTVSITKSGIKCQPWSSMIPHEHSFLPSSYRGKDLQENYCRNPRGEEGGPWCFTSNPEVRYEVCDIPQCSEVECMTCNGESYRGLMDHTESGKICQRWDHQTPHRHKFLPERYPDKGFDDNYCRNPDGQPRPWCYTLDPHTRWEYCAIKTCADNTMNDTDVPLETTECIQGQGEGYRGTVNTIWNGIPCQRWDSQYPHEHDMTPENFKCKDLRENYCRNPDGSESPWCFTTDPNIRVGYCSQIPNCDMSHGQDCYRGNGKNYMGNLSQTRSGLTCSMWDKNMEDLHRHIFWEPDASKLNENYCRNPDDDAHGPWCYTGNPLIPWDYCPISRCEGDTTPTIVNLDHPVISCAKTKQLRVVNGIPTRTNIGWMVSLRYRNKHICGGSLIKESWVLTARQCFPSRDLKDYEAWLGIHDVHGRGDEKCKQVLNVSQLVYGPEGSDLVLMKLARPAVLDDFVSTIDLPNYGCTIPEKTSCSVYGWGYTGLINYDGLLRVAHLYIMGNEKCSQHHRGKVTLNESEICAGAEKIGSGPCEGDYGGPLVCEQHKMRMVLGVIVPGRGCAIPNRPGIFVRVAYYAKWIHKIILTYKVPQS
Binder,EC50 [1],EC50 [2]
HC 2/SLC 7 (antibody) chain 1: GQGTLVTVSSASQPVLHQPPAMSSALGTTIRLTCTLRNDHDIGVYSVYWYQQRPGHPPRFLLRYFSQSDKSQGPQVPPRFSGSKDVARNRGYLSISELQPEDEAMYYCAMGARSRCWPRGFQSKHNSVTHVFGSGTQLTVLSQPKATPSVTLFPPSSEELQANKATLVCLMNDFYPGILTVTWKADGTPITQGVEMTTPSKQSNNKYAASSYLSLTPEQWRSRRSYSCQVMHEGSTVEKTVAPAECS chain 2: MSWAPVLLMLFVYCTGCGPQPVLHQPPAMSSALGTTIRLTCTLRNDHDIGVYSVYWYQQRPGHPPRFLLRYFSQSDKSQGPQVPPRFSGSKDVARNRGYLSISVTHVFGSGTQLTVLSQPKATPQVQLVQ,0.148 nM,0.055 nM
HC 2/SLC 5 (antibody) chain 1: GQGTLVTVSSASQPVLHQPPAMSSALGTTIRLTCTLRNDHDIGVYSVYWYQQRPGHPPRFLLRYFSQSDKSQGPQVPPRFSGSKDVARNRGYLSISELQPEDEAMYYCAMGARSRCWPRGFQSKHNSVTHVFGSGTQLTVLSQPKATPSVTLFPPSSEELQANKATLVCLMNDFYPGILTVTWKADGTPITQGVEMTTPSKQSNNKYAASSYLSLTPEQWRSRRSYSCQVMHEGSTVEKTVAPAECS chain 2: MSWAPVLLMLFVYCTGCGPQPVLHQPPAMSSALGTTIRLTCTLRNDHDIGVYSVYWYQQRPGHPPRFLLRYFSQSDKSQGPQVPPRFSGSKDVARNRGYLSISVTHVFGSGTQLTVLSQPKAQVQLVQ,0.248 nM,0.052 nM
HC 3/SLC 9 (antibody) chain 1: GQGTLVTVSSASTQPVLHQPPAMSSALGTTIRLTCTLRNDHDIGVYSVYWYQQRPGHPPRFLLRYFSQSDKSQGPQVPPRFSGSKDVARNRGYLSISELQPEDEAMYYCAMGARSRCWPRGFQSKHNSVTHVFGSGTQLTVLSQPKATPSVTLFPPSSEELQANKATLVCLMNDFYPGILTVTWKADGTPITQGVEMTTPSKQSNNKYAASSYLSLTPEQWRSRRSYSCQVMHEGSTVEKTVAPAECS chain 2: MSWAPVLLMLFVYCTGCGPQPVLHQPPAMSSALGTTIRLTCTLRNDHDIGVYSVYWYQQRPGHPPRFLLRYFSQSDKSQGPQVPPRFSGSKDVARNRGYLSISVTHVFGSGTQLTVLSQPKATPSVQVQLVQ,0.13 nM,0.049 nM
HC 3/SLC 3 (antibody) chain 1: GQGTLVTVSSASTQPVLHQPPAMSSALGTTIRLTCTLRNDHDIGVYSVYWYQQRPGHPPRFLLRYFSQSDKSQGPQVPPRFSGSKDVARNRGYLSISELQPEDEAMYYCAMGARSRCWPRGFQSKHNSVTHVFGSGTQLTVLSQPKATPSVTLFPPSSEELQANKATLVCLMNDFYPGILTVTWKADGTPITQGVEMTTPSKQSNNKYAASSYLSLTPEQWRSRRSYSCQVMHEGSTVEKTVAPAECS chain 2: MSWAPVLLMLFVYCTGCGPQPVLHQPPAMSSALGTTIRLTCTLRNDHDIGVYSVYWYQQRPGHPPRFLLRYFSQSDKSQGPQVPPRFSGSKDVARNRGYLSISVTHVFGSGTQLTVLSQPQVQLVQ,0.135 nM,0.055 nM
HC 3/SLC 15 (antibody) chain 1: GQGTLVTVSSASTQPVLHQPPAMSSALGTTIRLTCTLRNDHDIGVYSVYWYQQRPGHPPRFLLRYFSQSDKSQGPQVPPRFSGSKDVARNRGYLSISELQPEDEAMYYCAMGARSRCWPRGFQSKHNSVTHVFGSGTQLTVLSQPKATPSVTLFPPSSEELQANKATLVCLMNDFYPGILTVTWKADGTPITQGVEMTTPSKQSNNKYAASSYLSLTPEQWRSRRSYSCQVMHEGSTVEKTVAPAECS chain 2: MSWAPVLLMLFVYCTGCGPQPVLHQPPAMSSALGTTIRLTCTLRNDHDIGVYSVYWYQQRPGHPPRFLLRYFSQSDKSQGPQVPPRFSGSKDVARNRGYLSISVTHVFGSGTQLTVLSQPKATPSVTGGGGSQVQLVQ,0.057 nM,~0.041 nM

# The remaining lines, values ahead:
EC50 [1],EC50 [2],Binder
0.056 nM,0.059 nM,HC 10/SLC 7 (antibody) chain 1: GQGTLVTVSSASTKGPSVFPQPVLHQPPAMSSALGTTIRLTCTLRNDHDIGVYSVYWYQQRPGHPPRFLLRYFSQSDKSQGPQVPPRFSGSKDVARNRGYLSISELQPEDEAMYYCAMGARSRCWPRGFQSKHNSVTHVFGSGTQLTVLSQPKATPSVTLFPPSSEELQANKATLVCLMNDFYPGILTVTWKADGTPITQGVEMTTPSKQSNNKYAASSYLSLTPEQWRSRRSYSCQVMHEGSTVEKTVAPAECS chain 2: MSWAPVLLMLFVYCTGCGPQPVLHQPPAMSSALGTTIRLTCTLRNDHDIGVYSVYWYQQRPGHPPRFLLRYFSQSDKSQGPQVPPRFSGSKDVARNRGYLSISVTHVFGSGTQLTVLSQPKATPQVQLVQ
0.153 nM,0.062 nM,HC 7/SLC 6 (antibody) chain 1: GQGTLVTVSSASTKGPSQPVLHQPPAMSSALGTTIRLTCTLRNDHDIGVYSVYWYQQRPGHPPRFLLRYFSQSDKSQGPQVPPRFSGSKDVARNRGYLSISELQPEDEAMYYCAMGARSRCWPRGFQSKHNSVTHVFGSGTQLTVLSQPKATPSVTLFPPSSEELQANKATLVCLMNDFYPGILTVTWKADGTPITQGVEMTTPSKQSNNKYAASSYLSLTPEQWRSRRSYSCQVMHEGSTVEKTVAPAECS chain 2: MSWAPVLLMLFVYCTGCGPQPVLHQPPAMSSALGTTIRLTCTLRNDHDIGVYSVYWYQQRPGHPPRFLLRYFSQSDKSQGPQVPPRFSGSKDVARNRGYLSISVTHVFGSGTQLTVLSQPKATQVQLVQ
0.063 nM,0.061 nM,HC 9/SLC 8 (antibody) chain 1: GQGTLVTVSSASTKGPSVFQPVLHQPPAMSSALGTTIRLTCTLRNDHDIGVYSVYWYQQRPGHPPRFLLRYFSQSDKSQGPQVPPRFSGSKDVARNRGYLSISELQPEDEAMYYCAMGARSRCWPRGFQSKHNSVTHVFGSGTQLTVLSQPKATPSVTLFPPSSEELQANKATLVCLMNDFYPGILTVTWKADGTPITQGVEMTTPSKQSNNKYAASSYLSLTPEQWRSRRSYSCQVMHEGSTVEKTVAPAECS chain 2: MSWAPVLLMLFVYCTGCGPQPVLHQPPAMSSALGTTIRLTCTLRNDHDIGVYSVYWYQQRPGHPPRFLLRYFSQSDKSQGPQVPPRFSGSKDVARNRGYLSISVTHVFGSGTQLTVLSQPKATPSQVQLVQ
0.281 nM,0.071 nM,HC 8/SLC 4 (antibody) chain 1: GQGTLVTVSSASTKGPSVQPVLHQPPAMSSALGTTIRLTCTLRNDHDIGVYSVYWYQQRPGHPPRFLLRYFSQSDKSQGPQVPPRFSGSKDVARNRGYLSISELQPEDEAMYYCAMGARSRCWPRGFQSKHNSVTHVFGSGTQLTVLSQPKATPSVTLFPPSSEELQANKATLVCLMNDFYPGILTVTWKADGTPITQGVEMTTPSKQSNNKYAASSYLSLTPEQWRSRRSYSCQVMHEGSTVEKTVAPAECS chain 2: MSWAPVLLMLFVYCTGCGPQPVLHQPPAMSSALGTTIRLTCTLRNDHDIGVYSVYWYQQRPGHPPRFLLRYFSQSDKSQGPQVPPRFSGSKDVARNRGYLSISVTHVFGSGTQLTVLSQPKQVQLVQ
0.196 nM,0.058 nM,HC 4/SLC 4 (antibody) chain 1: GQGTLVTVSSASTKQPVLHQPPAMSSALGTTIRLTCTLRNDHDIGVYSVYWYQQRPGHPPRFLLRYFSQSDKSQGPQVPPRFSGSKDVARNRGYLSISELQPEDEAMYYCAMGARSRCWPRGFQSKHNSVTHVFGSGTQLTVLSQPKATPSVTLFPPSSEELQANKATLVCLMNDFYPGILTVTWKADGTPITQGVEMTTPSKQSNNKYAASSYLSLTPEQWRSRRSYSCQVMHEGSTVEKTVAPAECS chain 2: MSWAPVLLMLFVYCTGCGPQPVLHQPPAMSSALGTTIRLTCTLRNDHDIGVYSVYWYQQRPGHPPRFLLRYFSQSDKSQGPQVPPRFSGSKDVARNRGYLSISVTHVFGSGTQLTVLSQPKQVQLVQ
